Where a chain is given by its changes, count along the chain named.
Tested on: K562 CRISPRi cells
Experiment: Constant region variant library pooled growth screen, K562
Format: cell-based, human
Details: sgRNA constant region variants, un-modified constant region cr995
Summary of the method: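 Relative activity expresses each targeting sequence:constant region pair's phenotype over that of the unmodified constant region. Pooled growth screen ran in K562 CRISPRi cells in duplicate spinner-flask replicates, with puromycin selection and 4–8 days' growth at >2000× coverage; library paired variants with 36 targeting sequences.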

[1] = activity relative to the original
[2] = relative to the original, CRISPRi

B1: cr531 (nucleic acid)
guide: GTTTAAGAGCTAAGCTGGTAACAGCATAGCAAGTTTAAATAAGGCTAGTCCGTTATCAACTTGAAAAAGTGGCACCGAGTCGGTGCT
modifications: listed as DNA, chemistry not fully specified
[1]
  Mean relative activity: 1.048

B2: cr842 (nucleic acid)
guide: B1 guide with T19A, T34C, A59G, T70C
modifications: listed as DNA, chemistry not fully specified
[1]
  Mean relative activity: 0.5544

B3: cr837 (nucleic acid)
guide: B1 guide with T19A, G77C
modifications: listed as DNA, chemistry not fully specified
[1]
  Mean relative activity: 0.5543

B4: cr846 (nucleic acid)
guide: B1 guide with T19A, A28G, G63A, A78G
modifications: listed as DNA, chemistry not fully specified
[1]
  Mean relative activity: 0.5528

B5: cr254 (nucleic acid)
guide: B1 guide with T19A, C76A, G77C, C81G, G82T
modifications: listed as DNA, chemistry not fully specified
[1]
  Mean relative activity: 0.5503

B6: cr342 (nucleic acid)
guide: B1 guide with T19A, C57T, A65T
modifications: listed as DNA, chemistry not fully specified
[1]
  Mean relative activity: 0.5422

B7: cr940 (nucleic acid)
guide: B1 guide with T19A, T34C, T61G, A68C
modifications: listed as DNA, chemistry not fully specified
[1]
  Mean relative activity: 0.5399

B8: cr427 (nucleic acid)
guide: B1 guide with T19A, C57A, G79A
modifications: listed as DNA, chemistry not fully specified
[1]
  Mean relative activity: 0.5383

B9: cr098 (nucleic acid)
guide: B1 guide with A6C, A8T, T19A
modifications: listed as DNA, chemistry not fully specified
[1]
  Mean relative activity: 0.534

B10: cr814 (nucleic acid)
guide: B1 guide with T19A, C73G, A74T, T84A, G85C
modifications: listed as DNA, chemistry not fully specified
[1]
  Mean relative activity: 1.048

B11: cr430 (nucleic acid)
guide: B1 guide with T19A, G44A, C50T, C60A, G69T, C76A, G82T
modifications: listed as DNA, chemistry not fully specified
[1]
  Mean relative activity: 0.5328

B12: cr959 (nucleic acid)
guide: B1 guide with T19A, C60T, T62C, A67T, G69C
modifications: listed as DNA, chemistry not fully specified
[1]
  Mean relative activity: 0.5251

B13: cr511 (nucleic acid)
guide: B1 guide with T19A, A28T, A31C, A78C
modifications: listed as DNA, chemistry not fully specified
[2]
  Mean relative activity: 0.5247

B14: cr166 (nucleic acid)
guide: B1 guide with T19A, T34C, C73T, G85A
modifications: listed as DNA, chemistry not fully specified
[2]
  Mean relative activity: 0.5245

B15: cr072 (nucleic acid)
guide: B1 guide with T3C, A8T, T19A
modifications: listed as DNA, chemistry not fully specified
[2]
  Mean relative activity: 0.5236

B16: cr150 (nucleic acid)
guide: B1 guide with T19A, C75G
modifications: listed as DNA, chemistry not fully specified
[2]
  Mean relative activity: 0.523

B17: cr724 (nucleic acid)
guide: B1 guide with T19A, A58G
modifications: listed as DNA, chemistry not fully specified
[2]
  Mean relative activity: 0.5177

B18: cr265 (nucleic acid)
guide: B1 guide with T19A, C45T
modifications: listed as DNA, chemistry not fully specified
[2]
  Mean relative activity: 0.5157

B19: cr548 (nucleic acid)
guide: B1 guide with T19A, C75A
modifications: listed as DNA, chemistry not fully specified
[2]
  Mean relative activity: 0.513

B20: cr599 (nucleic acid)
guide: B1 guide with T19A, T49C, T61G
modifications: listed as DNA, chemistry not fully specified
[2]
  Mean relative activity: 0.5112

B21: cr005 (nucleic acid)
guide: B1 guide with T2C, T19A
modifications: listed as DNA, chemistry not fully specified
[2]
  Mean relative activity: 0.5108

B22: cr255 (nucleic acid)
guide: B1 guide with T19A, T34C, C73G, G85C
modifications: listed as DNA, chemistry not fully specified
[2]
  Mean relative activity: 0.5097

B23: cr675 (nucleic acid)
guide: B1 guide with T19A, T34C, A59C, T70G
modifications: listed as DNA, chemistry not fully specified
[2]
  Mean relative activity: 0.5084

B24: cr659 (nucleic acid)
guide: B1 guide with T19A, A38C
modifications: listed as DNA, chemistry not fully specified
[2]
  Mean relative activity: 0.504

B25: cr101 (nucleic acid)
guide: B1 guide with T19A, A74G
modifications: listed as DNA, chemistry not fully specified
[1]
  Mean relative activity: 1.048

B26: cr190 (nucleic acid)
guide: B1 guide with T19A, T54A, C57T, T80A
modifications: listed as DNA, chemistry not fully specified
[2]
  Mean relative activity: 0.5036

B27: cr317 (nucleic acid)
guide: B1 guide with T19A, A42T
modifications: listed as DNA, chemistry not fully specified
[2]
  Mean relative activity: 0.5027

B28: cr120 (nucleic acid)
guide: B1 guide with T19A, A65G, G77C, C81G
modifications: listed as DNA, chemistry not fully specified
[2]
  Mean relative activity: 0.5005

B29: cr530 (nucleic acid)
guide: B1 guide with T19A, T49C, T53A, A66C
modifications: listed as DNA, chemistry not fully specified
[2]
  Mean relative activity: 0.4998

B30: cr824 (nucleic acid)
guide: B1 guide with T19A, A65C, T80G
modifications: listed as DNA, chemistry not fully specified
[2]
  Mean relative activity: 0.499

B31: cr611 (nucleic acid)
guide: B1 guide with T19A, T56G, C57A, G79A
modifications: listed as DNA, chemistry not fully specified
[2]
  Mean relative activity: 0.4954

B32: cr765 (nucleic acid)
guide: B1 guide with T19A, T62G, A67C, C76T, G77C, C81G, G82A
modifications: listed as DNA, chemistry not fully specified
[2]
  Mean relative activity: 0.4931

B33: cr183 (nucleic acid)
guide: B1 guide with T19A, C45T, G48A, A65G
modifications: listed as DNA, chemistry not fully specified
[1]
  Mean relative activity: 1.047

B34: cr175 (nucleic acid)
guide: B1 guide with T19A, A58C
modifications: listed as DNA, chemistry not fully specified
[2]
  Mean relative activity: 0.4914

B35: cr016 (nucleic acid)
guide: B1 guide with A6T, T19A
modifications: listed as DNA, chemistry not fully specified
[2]
  Mean relative activity: 0.4876

B36: cr620 (nucleic acid)
guide: B1 guide with T19A, C45G, G48C, C73A, C76T, G82A, G85T
modifications: listed as DNA, chemistry not fully specified
[2]
  Mean relative activity: 0.4842

B37: cr682 (nucleic acid)
guide: B1 guide with T19A, G44C, C45G, G48C, C50G
modifications: listed as DNA, chemistry not fully specified
[2]
  Mean relative activity: 0.4794

B38: cr770 (nucleic acid)
guide: B1 guide with T19A, T34C, C73A, G85T
modifications: listed as DNA, chemistry not fully specified
[2]
  Mean relative activity: 0.4771

B39: cr177 (nucleic acid)
guide: B1 guide with T19A, T40G
modifications: listed as DNA, chemistry not fully specified
[2]
  Mean relative activity: 0.4771

B40: cr124 (nucleic acid)
guide: B1 guide with T19A, A32T, A42T
modifications: listed as DNA, chemistry not fully specified
[2]
  Mean relative activity: 0.4757

B41: cr369 (nucleic acid)
guide: B1 guide with T19A, C60A
modifications: listed as DNA, chemistry not fully specified
[2]
  Mean relative activity: 0.4754

From patent US20220259593A1, “CONTROL OF MAMMALIAN GENE DOSAGE USING CRISPR” (The Regents of the University of California, priority 2019, published 2022)
